Data as given in patent US20030166036.

Assays:
[1] = biological target: proPSA (precursor, zymogen form of PSA), recombinant, P07288
[2] = biological target: prostate specific antigen (PSA), mature form
Sequence of prostate specific antigen (PSA), mature form (chain, as listed by the source): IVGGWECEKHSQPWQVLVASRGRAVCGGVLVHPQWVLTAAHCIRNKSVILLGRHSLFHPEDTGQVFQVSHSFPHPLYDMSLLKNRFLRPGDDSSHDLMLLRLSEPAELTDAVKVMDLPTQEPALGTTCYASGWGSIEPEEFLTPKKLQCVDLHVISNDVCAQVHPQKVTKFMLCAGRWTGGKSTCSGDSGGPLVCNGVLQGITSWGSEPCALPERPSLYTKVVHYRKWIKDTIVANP

Sequence of proPSA (precursor, zymogen form of PSA), recombinant, P07288 (P07288 18-261): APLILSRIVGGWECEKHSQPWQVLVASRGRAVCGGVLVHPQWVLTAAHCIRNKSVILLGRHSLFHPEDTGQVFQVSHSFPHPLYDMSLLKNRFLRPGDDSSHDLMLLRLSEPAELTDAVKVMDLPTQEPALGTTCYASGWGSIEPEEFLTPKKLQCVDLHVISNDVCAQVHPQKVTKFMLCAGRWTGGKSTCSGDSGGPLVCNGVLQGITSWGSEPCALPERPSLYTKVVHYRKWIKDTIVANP

B1: lysyl endopeptidase C (Wako Chemicals USA) (protein)
chain: GVSGSCNIDVVCPEGDGRRDIIRAVGAYSKSGTLACTGSLVNNTANDRKMYFLTAHHCGMGTASTAASIVVYWNYQNSTCRAPNTPASGANGDGSMSQTQSGSTVKATYATSDFTLLELNNAANPAFNLFWAGWDRRDQNYPGAIAIHHPNVAEKRISNSTSPTSFVAWGGGAGTTHLNVQWQPSGGVTEPGSSGSPIYSPEKRVLGQLHGGPSSCSATGTNRSDQYGRVFTSWTGGGAAASRLSDWLDPASTGAQFIDGLDSGGGTP
[1]
  initial rate of cleavage of the Lys182 in pPSA: 8% per minute
  rate of cleavage at Lys145 in pPSA: about 0.6% per minute
[2]
  initial rate of cleavage at Lys182: 12% per minute
  percent of PSA cleaved at Lys182 after 30 minutes of incubation: 100% of the PSA had been cleaved at Lys182
  rate of cleavage at Lys145: 0.3% per minute
  relative rate of cleavage, Lys182 against Lys145: Lys182 is cleaved approximately 30 times more rapidly than Lys145 by LysC
